Laboratory results reported in publication PMC9666519.

Key:
[1] = molecular target: 20S proteasome core particle of Vairimorpha necatrix (Vairimorpha necatrix (endogenous in spores)); assay: cryo-EM structure; 26S proteasomes from germinated sporoplasms, purified with 20 mM ATP; 8.3 Å map without symmetry, AlphaFold models of the RP subunits docked as rigid bodies
[2] = molecular target: 20S proteasome core particle of Vairimorpha necatrix (Vairimorpha necatrix (endogenous in spores)); assay: cryo-EM structure; proteasomes from dormant V. necatrix spores, bead-beaten without ATP, lysate on Superose 6 Increase in 50 mM Tris pH 7.4, 300 mM NaCl, 5 mM DTT; 2.8 Å map of the 20S CP, C2 symmetry

percent of proteasome particles capped by RP [1] | percent of proteasome particles capped by RP on both ends [1] | stoichiometry N (PI31L per 20S core particle) [2] | Substance
12% | 1.5% | – | 19S regulatory particle of the Vairimorpha necatrix proteasome (complex)
– | – | 2 | PI31-like protein (PI31L) of Vairimorpha necatrix (natural protein)
